According to US20260207718:

Molecular target: cation-independent mannose-6-phosphate receptor (CIMPR) on fibroblast cells (UniProt P11717)
Sequence (P11717 41-2491): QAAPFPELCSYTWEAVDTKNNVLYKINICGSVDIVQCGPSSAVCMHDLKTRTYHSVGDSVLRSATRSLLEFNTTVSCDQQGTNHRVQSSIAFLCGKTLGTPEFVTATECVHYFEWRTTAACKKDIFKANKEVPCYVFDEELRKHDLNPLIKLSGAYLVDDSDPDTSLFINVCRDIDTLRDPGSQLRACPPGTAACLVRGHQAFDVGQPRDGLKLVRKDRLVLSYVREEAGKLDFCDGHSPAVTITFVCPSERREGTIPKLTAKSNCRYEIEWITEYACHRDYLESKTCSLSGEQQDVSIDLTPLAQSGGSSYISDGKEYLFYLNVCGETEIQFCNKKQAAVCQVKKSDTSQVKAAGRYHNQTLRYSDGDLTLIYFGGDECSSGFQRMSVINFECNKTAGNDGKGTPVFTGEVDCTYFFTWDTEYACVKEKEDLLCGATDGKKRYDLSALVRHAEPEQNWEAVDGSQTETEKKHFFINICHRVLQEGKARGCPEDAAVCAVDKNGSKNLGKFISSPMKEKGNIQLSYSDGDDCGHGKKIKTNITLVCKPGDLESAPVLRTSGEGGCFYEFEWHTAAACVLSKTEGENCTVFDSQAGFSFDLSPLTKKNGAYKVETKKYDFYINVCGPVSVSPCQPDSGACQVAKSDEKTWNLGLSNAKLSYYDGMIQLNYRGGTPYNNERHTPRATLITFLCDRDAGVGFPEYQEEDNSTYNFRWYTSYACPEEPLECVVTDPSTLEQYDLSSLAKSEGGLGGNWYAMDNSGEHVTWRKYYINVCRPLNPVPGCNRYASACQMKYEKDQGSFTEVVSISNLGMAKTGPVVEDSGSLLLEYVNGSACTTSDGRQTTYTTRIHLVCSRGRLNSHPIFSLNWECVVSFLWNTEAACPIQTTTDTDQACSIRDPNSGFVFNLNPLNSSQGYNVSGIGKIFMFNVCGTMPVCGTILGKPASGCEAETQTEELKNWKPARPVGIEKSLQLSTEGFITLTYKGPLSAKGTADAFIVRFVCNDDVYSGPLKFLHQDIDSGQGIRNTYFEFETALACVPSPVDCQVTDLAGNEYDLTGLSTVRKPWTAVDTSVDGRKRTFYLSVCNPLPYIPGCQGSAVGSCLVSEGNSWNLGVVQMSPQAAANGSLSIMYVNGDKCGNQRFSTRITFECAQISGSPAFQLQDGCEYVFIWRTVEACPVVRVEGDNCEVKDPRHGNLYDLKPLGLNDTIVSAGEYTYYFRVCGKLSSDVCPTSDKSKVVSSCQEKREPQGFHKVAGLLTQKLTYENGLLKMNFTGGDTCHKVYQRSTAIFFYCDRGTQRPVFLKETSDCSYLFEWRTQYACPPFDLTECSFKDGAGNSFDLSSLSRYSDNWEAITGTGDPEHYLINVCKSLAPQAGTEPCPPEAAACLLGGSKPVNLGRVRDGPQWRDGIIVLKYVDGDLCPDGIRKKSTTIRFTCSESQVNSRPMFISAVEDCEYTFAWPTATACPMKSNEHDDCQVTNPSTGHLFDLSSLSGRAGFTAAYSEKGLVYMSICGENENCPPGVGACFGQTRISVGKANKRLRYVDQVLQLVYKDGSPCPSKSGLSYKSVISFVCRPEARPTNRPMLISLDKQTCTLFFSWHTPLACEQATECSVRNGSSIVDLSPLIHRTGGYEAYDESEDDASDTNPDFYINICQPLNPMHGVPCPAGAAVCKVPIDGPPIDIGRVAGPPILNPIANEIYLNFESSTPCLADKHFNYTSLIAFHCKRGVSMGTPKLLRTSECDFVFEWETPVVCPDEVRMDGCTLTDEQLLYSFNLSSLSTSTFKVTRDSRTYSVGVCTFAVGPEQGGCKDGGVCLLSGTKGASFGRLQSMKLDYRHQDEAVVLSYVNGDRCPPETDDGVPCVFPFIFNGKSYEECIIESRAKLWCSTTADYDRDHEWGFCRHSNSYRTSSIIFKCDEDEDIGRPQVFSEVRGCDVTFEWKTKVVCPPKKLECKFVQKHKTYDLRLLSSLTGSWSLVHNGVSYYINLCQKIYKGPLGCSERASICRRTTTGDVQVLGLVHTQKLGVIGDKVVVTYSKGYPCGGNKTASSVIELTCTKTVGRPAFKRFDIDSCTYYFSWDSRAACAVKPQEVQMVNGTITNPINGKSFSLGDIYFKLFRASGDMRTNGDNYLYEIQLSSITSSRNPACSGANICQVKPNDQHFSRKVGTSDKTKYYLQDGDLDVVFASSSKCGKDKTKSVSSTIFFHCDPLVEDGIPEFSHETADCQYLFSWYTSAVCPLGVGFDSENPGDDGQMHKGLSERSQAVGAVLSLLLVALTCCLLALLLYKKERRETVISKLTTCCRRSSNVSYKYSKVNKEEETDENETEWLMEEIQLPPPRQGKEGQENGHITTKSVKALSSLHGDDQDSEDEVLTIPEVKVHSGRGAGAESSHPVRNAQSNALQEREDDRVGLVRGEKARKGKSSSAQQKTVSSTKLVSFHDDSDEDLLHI

Substance: LUMIZYME® (alglucosidase alfa, conventional rhGAA product)
- stated: internalized (GAA activity inside CRL 2076 normal fibroblasts): The curve labelled Alglucosidase Alfa rises gradually from 0: about 8 at about 10 nM, about 16 at about 27 nM and about 23 at about 80 nM. It reaches about 35 nmol/mg protein/hr at about 240 nM, where it meets the ATB200 curve. The +M6P point (square) at about 240 nM lies at about 1, on the zero lin
- stated: internalized (GAA activity inside PM25 Pompe fibroblasts): The curve labelled Alglucosidase Alfa rises gradually from 0: about 7 at about 10 nM, about 13 at about 27 nM and about 26 at about 80 nM. It reaches about 37 nmol/mg protein/hr at about 240 nM and stays below the ATB200 curve throughout. The +M6P points at about 245 nM lie at about 1-4, near the ze

Substance: ATB200 recombinant human acid α-glucosidase (rhGAA)
- stated: internalized (GAA activity inside CRL 2076 normal fibroblasts): The curve labelled ATB200 rises steeply from 0 to about 33 nmol/mg protein/hr at about 25 nM. It then stays on a plateau of about 34 up to about 240 nM. The +M6P point (triangle) at about 240 nM lies at about 5, near the zero line.
- stated: internalized (GAA activity inside PM25 Pompe fibroblasts): The curve labelled ATB200 rises steeply from 0 to about 30 at about 10 nM and about 36 at about 27 nM. The fitted plateau is about 41 nmol/mg protein/hr from about 80 nM. The last point, at about 240 nM, is about 45. The +M6P points at about 245 nM lie at about 1-4, near the zero line.
